According to the DeepSol protein solubility set:

test: soluble on expression in E. coli; label from the status in PepcDB or PDB records

Soluble on expression in E. coli, not soluble:
NTDELMRAVQPRVNPKLLYVIASTLRLYPLAKARLEIIRQTHITRGIDVHSIRGRWGLVLPLVVGLVDNAAQRARPLQRTGIGHSGPRTVLRPVPVMTHDVIIQVLAVCTTIAVCIWSIF
MCETCLIVIMDSSHDFSFADTFALQVATWFSDVFAQPTVVQRQAWAAISAGENALVVAPTGSGKTLAAFLWALNELVQGSGQTALLSRQAAGSAEVEASRAKGVKVVYISPLKALGVDVENNLRAPLTGINQVAARLGIDQSDITVGVRSGDTPASERSKQVRNPPDILITTPESLYLMLTSKARSILTTVDTVIVDEIHAMAGTKRGVHLALSLERLEHLAAQPVQRIGLSATVRPLDVVARFLGGDRPVEVINPPLEKKWQLAVHVPVDDMSDLPTPEPVSEIGEATIDDPLGLTTQPEGFAESALPAQGSMWTFIEQDVFDEVMEHRSTLVFVNSRRTAERLTSRLNELYAQRFQPEALSPALRRPPAQLMKSIDIAGEATAIIARAHHGSVSKDERALTEKMLKQGELRAVVSTSSLELGIDMGAVDKVIQVESPPSVASGLQRVGRAGHVVGAVSHGSFYPKHRADLVQTAVTVGRMTEGLIEELHVPTNALDVLVQHTVAAVAMDDLDVEDWYATVVRAYPYRDLPREAFDAAIDLTAGVYPSTDFAELRPKVIYDRITGTLSARPGAQRTAVINGGTIPDRGMFGVFLVGSGESGAPRRVGELDEEMVYESRVGDVFTLGASSWRIEEINKDQVLVTPAPGHTGRLPFWTGDQAGRPAELGKALGAFRRTLVADPSVVEGMGLDVRARSNVVAFIQQQQESTGVVPDEVTLVLERFRDELGDWRVVLHSPYGRGVNAAWALVAGAAFSQRTGMDAQPVASDDGIVLRVPESDAEPGADLFEIDPDTVEELVAQQVGNSALFAARFRECAARALLLPSRTPGKRAPLWQQRQRAAQLLDVARKYPSFPIVLETVRECLHDVYDLDALVELAAALKLRKVRIAEVTTQQP
SLRQDELKELERAIAEITEIAEGFGLDFYPMRYEICPADILYTFGAYGMPTRFSHWSFGKQFYKMKLHYDLGLSKIYELVINSDPCYAFLLDTNTLIQNKLIVAHVLAHSDFFKNNVRFSNTKRDMVESMAATAERIKHYEHQYGKLEVEKFLDAVLAIQEHIDPSLLRPKLSWTWEDTEVYEEEEPPKTSTPYDDLWSLDERDKLKTPPRKKRRKFPPQPEKDVLLFIEEYSRELEDWQRDILTMMREEMLYFWPQLETKIMNEG
MANKLTVLASVVAASSAMLSLSASAAESTLDKVLSQGFITCGVSTGLPGFSNPNAKGEWEGIDVEYCQAMAAAVLGDKTKVKFVPLTAKERFTALQSGEIDVLSRNTTWTLQRDSALGLNFVGVNYYDGQGFMVKKDLGVKSAKELNGASVCVQSGTTTELNLADYFRNSGMTYKPVVFDTAAQTSKGFDAGRCDVLTTDQSGLYALRLNLEKPDSAVVLPEIISKEPLGPVVRQDDDKWFNVAKWVLYAMVNAEEYGITSKNVDEMMKSDNPEVKRILGLDGPKGTGLGIRDDWSYQIVKQVGNYGESFDRTVGSGSPLKIDRGVNALWNAGGFMYAPPIR
MGSDKIHHHHHHMIRINMFSQADSVAGQGVGAAYLELIRLLRTHLVDDFYVTINKYGRSDLTHYHTINPTYFANSFSPARGRKIGYVHFLPDTLERSIKLPGVAKKVFYQYVIDFYKRMDQIVVVNPIFIDKLTEYGLDRNKIRYIPNFVAKSEFYEQTQAKKNATRQELGIPQDKFVVFGDGQVQARKGVDDFAKLAEANPDYQFIWAGGFSFGKITDGYDHFKQLVENPPKNLTFTGIIDREKLVDYLNMADLFLLPSFDELFPMSVLEAFSCGTPVLLRDLDLYRAIIDGYYLAGKDSAEMNEQLRFAATHPEVLARQQELSRKASQQYSEDHLAEIWRDFYQEQYQLGRELGQISYE
KKPIPTLFLHGFGGSANSEKFMVKQAEKRGVTKDIITAYVSKDGAVTFKGKLRKDAVNPIVKIELENNRQGYLDKNAAWFKNVLTKLQSEYNFDKFNFVGHSMGNLTFAQYMMTYGNDKSLPQLNKQVNIAGTFNGVLNMNEDVNEITVDKDGKPSRMNQPYQQLRVLKDIYKGKGIEVLNIYGDLKDGTHSDGRVSNSSSKSLKYLLGNSPKSYRESKYEGEPAQHSQLHENENVANELIDFLWKK
AGKTLYDKLWEAHEVKRRDDGSSLIYIDRHIIHEVTSPQAFEGLRLANRKPWRIDANIATPDHNVPTTPERKGGIEAIVDQVSRLQVQTLDENCDEYGIVEFKMNDERQGIVHVISPEQGATLPGMTVVCGDSHTSTHGAFGALAHGIGTSEVEHVLATQCLVAKKMKN
MAPTPKFGPKKIQNVSAVSCSVKKYQASTSSPVPILNVQERVELRKLEQMLPVSPKNCDPADVVLRAASYIDQLVATVQARVKNGTLPMGALSSLPPQYSKPIKSSRRTVSSKKSRRSMEKKR
MNSIQIADETYVAADAARVSAAVADRCSWRRWWPDLRLQVTEDRADKGIRWTVTGALTGTMEIWLEPSMDGVLLHYFLHAEPTGVAAWQLARMNLARMTHHRRVAGKKMAFEVKTVLERSRPIGVSPVT
MAHHHHHHMLKKFSPLSFMVLQKRYNKSEQKIFDKIKNIINSNKNLRHTDDEKDKIEIINIDNEIINKENISFKCNIINEDSTKNENKKDNIDEMTNVNIYDDYFNINDEYNNVMSNDNDNVDIKSFIRETVDYYKSLQLKKKEDHLNVLNVKKKDYSNIKEYYNKNEEIKEIVQDNNFIWNNKNYDKKNIHSGFHSDIIYYDNYDTTKSKHNQNIQNGQNIQNGQNIQNGQNIQNNQNNQNIQNIQNNQNNQHCHNSTHEKNCGSYNFLTPAQVFFENNKEKLIQESYKYYKERENNINKEDYLYDENEGYYNYANMKTPIIRPNDKEGFLFNYEDDDYNNNDDEGEDDMTLEKGIMPTIEQIVCILKHEKVKDIKVIDLDKCGRRDIGMFLILCTGNTAKHNKKVGKLISKIFIDLEIPYISNVVYCYCNKFDDWIITHCGPLKINIVTKELRNLYDIENLFLYPHEHFDSTNFPSFFDYTPGIPPPYLVRSNASMDSYKNDDIYTKFLTEK
TLAFCRFSAPGIYFLEKLFHPVASMLVRSTTFLNKHFAKKNHNISVDELSHALELTDKAEISEENNILEGIIRFGGETVKEVMTSRLDMVDLDVRTPFKEVMQCIIENAYSRIPIYSGSRDNIKGVLYIKDLLPHVNKGDNFRWQSLIRPAYFVPETKMIDDLLRDFQANKIHIAIVVDEFGGTSGLVTMEDIIEEIVGEIHDEYDD
MGSDKIHHHHHHMSQIIAIHSFRGGTGKSNIIANIGATMALKGQRVGIIDTDIQSPGIHIIFGLKEEKIRLTLNDYLWKRCDIQDTAYDVTDTLIAESGNTDKIRGSLYLIPSSIKAAEIARVLREGYDVVRLHDGFQEIIRSLKLDYLLIDTHPGLNEETLISIGIANTLLIILRPDNQDFQGTAVTVDVARKLKAARILLVLNKALASFNFTDLQQQLEQIYDVPVVGILPLAEDMVQLASKGLFCLRYPQHPITQTIQEITDQLAGLVVSHQ
MDDLTIEILTDDADYDLQRFDCGEEALNLFLTTHLVRQHRNKILRAYILCRNTPERQVLGYYTLCGSCFERAALPSKSKQKKIPYKNIPSVTLGRLAIDRSLQGQGWGATLVAHAMNVVWSASLAVGIHGLFVEALNEKAHTFYKSLGFIPLVGENENALFFPTKSIELLFTQSD
MSVSARSAAAEERSVNCGTMAQPKNLEGYVGFANLPNQVYRKSVKRGFEFTLMVVGESGLGKSTLINSLFLTDLYSPEYPGPSHRIKKTVQVEQSKVLIKEGGVQLLLTIVDTPGFGDAVDNSNCWQPVIDYIDSKFEDYLNAESRVNRRQMPDNRVQCCLYFIAPSGHGLKPLDIEFMKRLHEKVNIIPLIAKADTLTPEECQQFKKQIMKEIQEHKIKIYEFPETDDEEENKLVKKIKDRLPLAVVGSNTIIEVNGKRVRGRQYPWGVAEVENGEHCDFTILRNMLIRTHMQDLKDVTNNVHYENYRSRKLAAVTYNGVDNNKNKGQLTKSPLAQMEEERREHVAKMKKMEMEMEQVFEMKVKEKVQKLKDSEAELQRRHEQMKKNLEAQHKELEEKRRQFEEEKANWEAQQRILEQQNSSRTLEKNKKKGKIF
MSLARPNSKASIGTVFQDRAARYGDRVFLKFGDQQLTYRDANATANRYAAVLAARGVGPGDVVGIMLRNSPSTVLAMLATVKCGAIAGMLNYHQRGEVLAHSLGLLDAKVLIAESDLVSAVAECGASRGRVAGDVLTVEDVERFATTAPATNPASASAVQAKDTAFYIFTSGTTGFPKASVMTHHRWLRALAVFGGMGLRLKGSDTLYSCLPLYHNNALTVAVSSVINSGATLALGKSFSASRFWDEVIANRATAFVYIGEICRYLLNQPAKPTDRAHQVRVICGNGLRPEIWDEFTTRFGVARVCEFYAASEGNSAFINIFNVPRTAGVSPMPLAFVEYDLDTGDPLRDASGRVRRVPDGEPGLLLSRVNRLQPFDGYTDPVASEKKLVRNAFRDGDCWFNTGDVMSPQGMGHAAFVDRLGDTFRWKGENVATTQVEAALASDQTVEECTVYGVQIPRTGGRAGMAAITLRAGAEFDGQALARTVYGHLPGYALPLFVRVVGSLAHTTTFKSRKVELRNQEGHHHHHH

Soluble on expression in E. coli, soluble:
MGHHHHHHSHMFSEECIMDVIGCLEYDPALSQPRKHREFLTKTAKFKEVIPISDPELKQKIHQTYRVQYIQDMVLPTPSVFEENMLSTLHSFIFFNKVEIVGMLQEDEKFLTDLFAQLTDEATDEEKRQELVNFLKEFCAFSQTLQPQNRDAFFKTLSNMGILPALEVILGMDDTQVRSAATDIFSYLVEYNPSMVREFVMQEAQQNDDVSKKLTEQKITSKVNIICTNSKYLYIGSYNCFYYSF
GLETSSKKYSLGKTLGTGSFGIVCEVFDIESGKRFALKKVLQDPRYKNRELDIMKVLDHVNIIKLVDYFYTTGDEEPKPPQPPDDHNKLGGKNNGVNNHHKSVIVNPSQNKYLNVIMEYVPDTLHKVLKSFIRSGRSIPMNLISIYIYQLFRAVGFIHSLGICHRDIKPQNLLVNSKDNTLKLCDFGSAKKLIPSEPSVAYICSRFYRAPELMLGATEYTPSIDLWSIGCVFGELILGKPLFSGETSIDQLVRIIQIMGTPTKEQMIRMNPHYTEVRFPTLKAKDWRKILPEGTPSLAIDLLEQILRYEPDLRINPYEAMAHPFFDHLRNSYESEVKNNSNFPHGVNQNIPQLFNFSPYELSIIPGNVLNRILPKNFSPNYKH
MSLQPSQRVVLSHLVHGGWDEIAHSSLRPEIRGFKRTREVARSLLARRLPIYSAVFTGDCLFGNHPLLRPIGIHMQNVQAGNLLVSSTLVDGTVLNQAVCLMVHEDTEHAIGLMLNRPMQAMAGAITIQGTPQETPKIPRWNAEDLDETSEGDSTIDPSSDSIEHPVSGVPSVVISGDQKDQLAQQLLSGKLANGSSLHFGGPLSGPIVAVHSNRELAEAETGEGIFVAAQRENLEALMKSSDLPYRLIIGHLGWTAEQLENEIEEGIWHRIPATSDLLNSDDAMMWPRMIRRATANSVARWLDTTDVPGSAELNEGHHHHHH
MWQPATERLQVTYLGKVSTTGMQFLSGCTEKPVIELWKKHTLAREDVFPANALLEIRPFQVWLHHLDHKGEATVHMDTFQVARIAYCTADHNVSPNIFAWVYREINDDLSYQMDCHAVECESKLEAKKLAHAMMEAFRKTFHSMKSDGRIHSNSSSEEVSQELESDDG
